Test results reported in patent US20250163116A1, “NEW METHOD TO TREAT INFECTIOUS DISEASES” (INSERM (INSTITUT NATIONAL DE LA SANTÉ ET DE LA RECHERCHE …, priority 2022, published 2025).

B1: cANGPTL4: C-terminal fragment of ANGPTL4, aa 164-406, fibrinogen-like domain, purchased from R&D Systems (protein, listed as Homo sapiens)
chain: RLPEMAQPVDPAHNVSRLHRLPRDCQELFQVGERQSGLFEIQPQGSPPFLVNCKMTSDGGWTVIQRRHDGSVDFNRPWEAYKAGFGDPHGEFWLGLEKVHSITGDRNSRLAVQLRDWDGNAELLQFSVHLGGEDTAYSLQLTAPVAGQLGATTVPPSGLSVPFSTWDQDHDLRRDKNCAKSLSGGWWFGTCSHSNLNGQYFRSIPQQRQKLKKGIFWKTWRGRYYPLQATTMLIQPMAAEAAS
B2: ANGPTL4: Recombinant human ANGPTL4 (Angiopoietin-like 4), full length, SEQ ID NO: 1, purchased from R&D Systems (protein, listed as Homo sapiens)
chain: MSGAPTAGAALMLCAATAVLLSAQGGPVQSKSPRFASWDEMNVLAHGLLQLGQGLREHAERTRSQLSALERRLSACGSACQGTEGSTDLPLAPESRVDPEVLHSLQTQLKAQNSRIQQLFHKVAQQQRHLEKQHLRIQHLQSQFGLLDHKHLDHEVAKPARRKRLPEMAQPVDPAHNVSRLHRLPRDCQELFQVGERQSGLFEIQPQGSPPFLVNCKMTSDGGWTVIQRRHDGSVDFNRPWEAYKAGFGDPHGEFWLGLEKVHSITGDRNSRLAVQLRDWDGNAELLQFSVHLGGEDTAYSLQLTAPVAGQLGATTVPPSGLSVPFSTWDQDHDLRRDKNCAKSLSGGWWFGTCSHSNLNGQYFRSIPQQRQKLKKGIFWKTWRGRYYPLQATTMLIQPMAAEAAS
B3: nANGPTL4: N-terminal fragment of ANGPTL4, aa 26-164, SEQ ID NO: 24, purchased from R&D Systems (protein)
chain: GPVQSKSPRFASWDEMNVLAHGLLQLGQGLREHAERTRSQLSALERRLSACGSACQGTEGSTDLPLAPESRVDPEVLHSLQTQLKAQNSRIQQLFHKVAQQQRHLEKQHLRIQHLQSQFGLLDHKHLDHEVAKPARRK
modifications: nANGPTL4

System: HDMECs infected with Nm 2C4.3
Assay: Integrity of HDMEC monolayers infected with N. meningitidis (VE-cadherin at intercellular junctions, immunofluorescence)
Assay type: cell-based, human
Details: 1 μg/mL added 30 min after initiation of Nm infection, 2 h 30
Experimental: FIG. 1. Exogenous ANGPTL4 exerts protective effects on dermal microvascular endothelial cells infected by N. meningitidis. A. HDMECs were infected with Nm 2C4.3 for 30 min and treated with 1 μg/mL of recombinant human ANGPTL4 for 2 h 30. Cells were fixed and stained for cellular actin, VE-cadherin and DAPI and analyzed by fluorescent microscopy. Quantifications of VE-cadherin enrichment at intercellular junctions and of intercellular spaces area were performed on 30 fields with Image J software. Kruskal-Wallis test ** P<0.001; P<0.0001. B. HDMEC were either uninfected or infected with N. meningitidis 2C4.3 for 30 min and treated with 1 μg mL−1 of recombinant human ANGPTL4, its N-terminal portion (nANGPTL4) or its C-terminal portion (cANGPTL4) for 2 h 30. Caspase-3/7 reagent was added to detect apoptosis in real time over 9 h using the IncuCyte® Live-Cell Analysis System
FIG. 2: Vascular protection is conferred by the N-terminal part of ANGPTL4. A, Schematic representation of ANGPTL4 structure. ANGPTL4 contains a N-terminal portion (nANGPTL4, aa 26-164) linked to a C-terminal portion (cANGPTL4, aa 164-406) by a cleavable linker. nANGPTL4 contains a highly conserved lipoprotein lipase (LPL) binding domain (aa 44-55), two cysteines on position 76 and 80 involved in protein oligomerization and a coiled-coil domain (aa 100-143). The C-terminal portion encodes a fibrinogen-like domain. B, HDMECs were infected with Nm 2C4.3 for 30 min and treated with 1 μg/mL of recombinant human ANGPTL4, nANGPTL4 or cANGPTL4 for 2 h 30. Cells were fixed and stained for cellular actin, VE-cadherin and DAPI and analyzed by fluorescent microscopy. B. Quantifications of VE-cadherin enrichment at intercellular junctions and of intercellular spaces area were performed on 30 fields with Image J software. Kruskal-Wallis test ** P<0.001, *** P<0.0001 of four independent experiments performed in triplicate.
FIG. 3: Vascular protection is conferred by a novel binding motif (aa 66-80) present in the N-terminal part of ANGPTL4. A, the indicated peptides were derived from nANGPTL4. B, HDMECs were infected with Nm 2C4.3 for 30 min and treated with 1 μg/mL of each peptides. Quantifications of VE-cadherin enrichment at intercellular junctions was performed on 30 fields with Image J software.
FIG. 4: Vascular protection is conferred by interaction of nANGPTL4 with Syndecan-4. A, HDMECs were infected with Nm 2C4.3 for 30 min and treated with 1 μg/mL of recombinant human ANGPTL4, nANGPTL4 or cANGPTL4 in the absence or in the presence of anti-SDC4 antibody for 2 h 30. Cells were fixed and stained for cellular actin, VE-cadherin and DAPI and analysed by fluorescent microscopy. Quantifications of VE-cadherin enrichment at intercellular junctions and of intercellular spaces area were performed on 30 fields with Image J software. Kruskal-Wallis test ** P<0.001, **** P<0.00001, ns1 P=0.2172; ns2 P>0.999 of four independent experiments performed in triplicate. B, HDMECs were transfected with small interfering RNA (siRNA) against SDC4 or non-targeting siRNA controls for 48 h, infected with Nm 2C4.3 for 30 min and treated with 1 μg/mL of recombinant human ANGPTL4, for 2 h 30. Quantifications of VE-cadherin enrichment at intercellular junctions and of intercellular spaces area were performed on 30 fields with Image J software. Kruskal-Wallis test ** P<0.001, *** P<0.0001, of two independent experiments performed in triplicate.
The day of infection, a suspension of the bacteria from an overnight culture on GCB agar plate was adjusted to OD600=0.05 and incubated for 2 h at 37° C. in a pre-warmed cell culture medium. Cells were infected with bacteria at a multiplicity of infection (MOI) of 100 bacteria per cell (OD=0.1) for 30 minutes, washed twice to remove non-adherent bacteria and infection was allowed to proceed for various periods of time. Cells were then washed and fixed in 4% paraformaldehyde for immunofluorescence analysis. […]

Row | Molecule | protective effect on monolayer integrity (adherens junctions, cell detachment) of infected HDMECs
1 | B1 | no significant protective effect
2 | B2 | entirely preserved the integrity of this monolayer
3 | B3 | sufficient to maintain cell monolayer integrity upon infection
